The source of these data is paper PMC6007841.

The target of this test is human melanocortin 1 receptor (human) (UniProt Q01726).
human melanocortin 1 receptor (human), sequence (Q01726 whole entry): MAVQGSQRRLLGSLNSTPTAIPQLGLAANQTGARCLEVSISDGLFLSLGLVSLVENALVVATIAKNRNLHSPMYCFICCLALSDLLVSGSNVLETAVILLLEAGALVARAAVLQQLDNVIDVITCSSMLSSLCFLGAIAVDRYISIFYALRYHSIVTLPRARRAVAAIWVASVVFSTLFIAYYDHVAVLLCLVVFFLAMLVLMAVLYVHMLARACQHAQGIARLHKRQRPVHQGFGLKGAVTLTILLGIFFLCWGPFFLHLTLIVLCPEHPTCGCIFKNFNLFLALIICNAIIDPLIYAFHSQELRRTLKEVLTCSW

B1: mouse β-defensin 1, linear, reduced form (peptide)
chain: DQYKCLQHGGFCLRSSCPSNTKLQGTCKPDKPNCCKS
modifications: reduced, linear form
Molecule B1 gave a cAMP agonist EC50 (AlphaScreen cAMP assay, HEK293 cells expressing the receptor) of 4.5 µM.
